This is an account of results in US20090291083A1, “BARB4 TARGET, ANTIBODY DESIGNATED BARB4, BARB4 RELATED ANTIBODIES, AND METHODS OF MAKING AND USING SAME” (PATRYS LIMITED, priority 2008, published 2009).

For one assay, the system named is TAF 15. The experiment in a line: Immunoprecipitation of cell extracts with BARB4 and Western blotting. In kind it is binding, human. The conditions noted are these: MKN cell extracts. How it is done:
To further validate BARB4 target protein TAF 15, BARB4 and a commercial TAF 15 antibody (anti-human TAFII p68, Santa Cruz Biotechnology, sc-81121) were analyzed for binding to BxPC-3, HEK 293, A549 and HeLa cell lines. In brief, cells were trypsinized with cell dissociation solution (Sigma C5789), resuspended in complete medium (RPMI 1640, PAA, E15-039, 10% Fetal bovine serum, PAA, A15-151 and 1% Glutamine, PAA, M11-004) and set on 2×10^5/ml. After 30 minutes on ice, cells were dispersed at 1 ml per FACS-tube and washed once with ice-cold PBS by centrifugation with 500 g and 4° C. Staining was done with BARB4 (100 ug/ml) or the commercial TAF 15 (25 μg/ml) IgG antibodies, control IgGs (IgG lambda, or mouse IgG), or without antibody in 200 μl PBS. Cells were incubated with 25 μg/ml antibody in 100 μl for 30 minutes on ice, then washed with ice cold PBS and secondary antibody (anti mouse IgG-FITC, dianova 115-095-008) was applied at a dilution of 1:50 in 200 μl per tube. After another 30 minutes of incubation in the dark, cells were washed twice with PBS and analyzed by FACS. […] BARB4 target protein TAF 15 validation was then analyzed by immunoprecipitation of MKNcell extracts with BARB4 and subsequent Western blotting with either BARB4 or anti-TAF 15 antibodies (Biomol, A300-308A; or Aviva, ARP30111_T100). […]

The test system of assay [1] is lung carcinoma cells (A549). The experiment in a line: FACS analysis of tumor cell binding. Also noted: species or system human. To be noted: 20 min on ice. Here is the method: (§1) To analyze tumor cell binding, pancreas cancer cells (BXPC-3), stomach cancer cells (23132/87), lung carcinoma cells (A549) and malignant melanoma cells (HTB-69 and CRL-1424) were grown to subconfluency in complete medium, detached with Trypsin/EDTA and incubated on ice for 1 h for recreation. Tumor cells were subsequently incubated on ice with BARB4 antibody (diluted in PBS containing 0.01% sodium azide), or human isotype-matched control antibody (Chrompure human IgG, Dianova, Hamburg, Germany) for 20 min on ice. Following incubation, cells were incubated with a FITC-labeled rabbit anti-human IgG antibody (1:50, Dako, Germany) for 20 min on ice, and cells were analyzed by flow cytometry (FACScan; Becton Dickinson, USA).

Assay [2] relates to pancreas cancer cells (BXPC-3). The experiment in a line: FACS analysis of tumor cell binding. Also noted: species or system human. To be noted: 20 min on ice. Here is the method:
as §1
In general terms: A flow cytometer gives signals particle by particle.

B1: BARB4: human IgG antibody produced by hybridoma DSMZ Deposit No. DSM ACC2876; heavy chain SEQ ID NOs:1, 3, 5, 7, light chain SEQ ID NO:9 (antibody, V domains shown)
VH: QVQLVESGGGVVQPGRSLRLSCAASGFRFTTHGMHWVRQAPGKGLEWVAVISYNGRNKYYADYVNGRFTISRDDSRDTVFLQMNSLRPEDTAMYYCAKVRGDGYGDYGYFDYWGHGTLVSVSS
VL: QSALTQPRSVSGSPGQSVTISCTGTYNYVSWYQQHPGKAPKLMIFDVSRRSSGVPDRFSGSKSGNTASLTISGLQAEDEADYYCCSYGGTYLYVFGTGTTVTVLGQ
As to B1, the “detection of TAF15 in the immunoprecipitate by Western staining with BARB4 antibody” value in the assay with TAF 15 (FIG. 9B, assay conditions may not be optimized) is given as “did not appear to detect TAF15”. In addition, the “immunoprecipitation of TAF 15, Western staining with anti-TAF 15 antibodies” value with TAF 15 (FIGS. 9A and 9C) is on record as “able to immunoprecipiate TAF 15”. Besides, the “tumor cell binding (FACS)” value in assay [1] and in assay [2] was “binds” throughout.
